Consider three molecules from paper PMC5063366, “Crystal Structure of Saccharomyces cerevisiae ECM4, a Xi-Class Glutathione Transferase that Reacts with Glutathionyl-(hydro)quinones” (PLoS ONE, 2016).

The target in one data set is T1, ScECM4 (Saccharomyces cerevisiae, UniProt P36156).
T1 construct: gene ECM4; full-length, C-terminal His-tag kept (pET-26b NdeI/XhoI), expressed in E. coli Rosetta2 (DE3) pLysS; dimer
T1 sequence (P36156 1-370): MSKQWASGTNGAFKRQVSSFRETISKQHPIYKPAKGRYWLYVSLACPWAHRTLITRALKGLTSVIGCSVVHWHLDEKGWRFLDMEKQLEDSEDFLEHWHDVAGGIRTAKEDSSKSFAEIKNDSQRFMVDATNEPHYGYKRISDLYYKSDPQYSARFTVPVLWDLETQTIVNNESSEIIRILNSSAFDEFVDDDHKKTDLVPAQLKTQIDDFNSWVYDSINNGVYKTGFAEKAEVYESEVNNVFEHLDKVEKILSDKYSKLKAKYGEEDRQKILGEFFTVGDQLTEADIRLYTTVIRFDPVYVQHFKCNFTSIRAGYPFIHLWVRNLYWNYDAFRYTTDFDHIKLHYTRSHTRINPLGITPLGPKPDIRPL
As to the kind of experiment: absorbance loss at […] nm; HPLC of menadione at […] nm. To be noted: GSH 0.05 to 1 mM (spectrophotometry) or 2 mM (HPLC) required; 30 mM Tris-HCl pH 8.0, 1 mM EDTA; room temperature (HPLC). The data set is classed as biochemical.

Data set [1] concerns the molecule itself. As to the kind of experiment: crystal structure; microbatch under paraffin oil at 278 K, 20% PEG 2000 MME, 0.1 M Tris-HCl pH 7.0; space group P2(1), two monomers in the asymmetric unit; apo crystals and crystals soaked with 5 mM GS-menadione.

On to `CC1=C(SC[C@H](NC(=O)CC[C@H](N)C(=O)O)C(=O)NCC(=O)O)C(=O)c2ccccc2C1=O` [GS-menadione], for which the “absorbance loss at 430 nm; HPLC of menadione at 250 nm” value at ScECM4 was “ScECM4 activity measurements stated for reduction of GS-menadione to menadione in presence of glutathione”.

B1: ScECM4 (ECM4 from Saccharomyces cerevisiae, glutathionyl-hydroquinone reductase, Xi-class glutathione transferase) (enzyme, UniProt P36156 1-370, looked up)
chain: T1 sequence (P36156 1-370)
notes: ECM4 (Gto2), Saccharomyces cerevisiae, YKR076W; Homodimer in the crystal; The printed end of the C-terminal domain (E372) probably counts residues added by the XhoI site and vector before the His tag (surmised); also called Gto2; GHR ScECM4; source: E. coli Rosetta2 (DE3) pLysS, purified (Ni-NTA, gel filtration on Superdex 200); not shown: His6, C-terminal, kept
As to B1, the “stoichiometry N” value in data set [1] was found to be 2.

B2: glutathionylated ScECM4 (ScECM4-SG) (enzyme, Saccharomyces cerevisiae, UniProt P36156 1-370, looked up)
chain: T1 sequence (P36156 1-370)
modifications: glutathione covalently bound to C46 (mixed disulfide bond)
notes: ECM4 (Gto2), Saccharomyces cerevisiae, YKR076W; same construct as m1, glutathionylated at C46 after soaking or co-crystallisation with GS-menadione; Same construct as m1, with glutathione on C46; Homodimer in the crystal; source: E. coli Rosetta2 (DE3) pLysS, purified (Ni-NTA, gel filtration); crystals soaked with 5 mM GS-menadione; not shown: His6, C-terminal, kept
On to B2, for which the “stoichiometry N” value in data set [1] stood at 2.

By stoichiometry N is commonly meant the number of molecules, sites or subunits per partner or assembly.
